Target: TcdB4.2 (full-length recombinant toxin B variant 4.2) (Clostridioides difficile)
Assay: BLI; as a1, KD calculated with the BLItz system software from the indicated concentrations (Supplementary Fig. 7); KD called estimated
Conditions: both partners purified

B1: mTFPI-Fc (Fc-tagged mouse TFPI) (Fc fusion)
chain: LSEEADDTDSELGSMKPLHTFCAMKADDGPCKAMIRSYFFNMYTHQCEEFIYGGCEGNENRFDTLEECKKTCIPGYEKTAVKAASGAERPDFCFLEEDPGLCRGYMKRYLYNNQTKQCERFVYGGCLGNRNNFETLDECKKICENPVHSPSPVNEVQMSDYVTDGNTVTDRSTVNNIVVPQSPKVPRRR
notes: source: Expi293F, transfected, purified from culture medium as His-tagged protein
In the case of B1, the Kd is reported as roughly 63 nM.

Reference: PMC9646764 (Nature Communications, 2022)
